Assay: soluble on expression in E. coli; label from the status in PepcDB or PDB records

Soluble on expression in E. coli, not soluble:
MGSDKIHHHHHHMIYFLCSFYGEAEGIISYYKLRKEAVHSSFQIFSSEEIKLIISGTGKINAACAVGYIGSLKSKLSKDLFVNVGICGSRSRTVGECVFINKIKDVDTNKEFYPDILLKHDFEEGNLQTFSIPVTTGQVDDVCDMEGSAFFQSASKFFQKHEIALIKIVSDNANNVNVSGELVRNLIKKSMEKINSYIENYKRIFHEKNFLSDVCTGNIEKIVSRLRLTESQSIQLKKAAVAYKIRNGKEFDFEGFLSLEVKIKNDGRKYFSNLIGSMWK
MGSDKIHHHHHHMKAISNDKPQGVCATDFASVLGEENAVCLWENIEIGQQKRIQQAVTSGKPPTCIVYPRTQQQLAAVIAKAYSHNWRVLPCGSGSKLSWGGLAKGVDVVVGTERINQLIEHAVGDLTVTVEAGMKFSDLQALLAKSRQFLALDPTAPQSATIGGIVATGDTGSLRQRYGSVRDQLLGVTFVRADGEIAKAGGRVVKNVAGYDLMKLLTGSYGTLGFISQLTFRVYPLSEASGTVVLTGSAEAVSQAADILRGSALTPVQADLLSTKLVSSLGLGEGLGLIARFQSISESVKEQSNRVLEVGQKLGLDGAIFADADEASLWQRLQERIHSTATESVITCKIGVLPTAAVDILTQVGLGLIHISSGLGLLQLEDKNQVLKVREQLRSAGSDGTQANSGFLTILEAPMAVKEQVDVWGYNGNALPLMRRIKEQFDSKNILSPGRFVGGI
MGSDKIHHHHHHMKAPLVSIIIPVWNLWELTCACLDSIRAHTPGNAVEVIVVDNGSDDTTATALAPTGEGLFGARFRRIRLETNRGFAVACNLGAAKAQGTYLLLLNNDTVLSPGWLPPLLREFDDEPRTGAAGPLLVYPDSGRVQHCGIAFAPTLQTEHLYANFPATHPAVRARRTLQAITGAAMLLPTALFRQCGGFHEGYKNGCEDLELCCRIREQGLRLAVVPESLVAHHESRTPGRKEHDAANATLLNRRCSGCFGPDLHRHALRDGFAIALTPWLDTYLTLPPGREAALTREHITDFDPGRCWETLQGEPLWHGGYEMLCSILDEAGRHAESAGVRLLQAGFFPTLPGFRQLARSAALSGNDELARQAAEKMQHIGGILEDPEPLVTRARGLVRWARRAGEPAVEALYTGWLTDIGLSADD
MGSDKIHHHHHHMKDGQMLTEWPSHLPWLNQSQNDFTFPSDTYLLLYFWSMSCPNCHQFTDKVLQDIKDMNVKVIGVHVPYIEEEKSMEVVLTYALDRGLAIPIVLDQNYEIVTTCHVQGIPSFCLLSQYGQIITKTMGDVSWDKMLKKIAGL
MGSDKIHHHHHHMKDINMTVEKGQVAGILGITGCGKTTLLKLLYNGLKNGDRRLIWKGGNYVDAIGRARPNAVYVPQSAPDSLDPVYSVIDQIRKVMQARSVDFDQDLLEKIMSEIGRSPDMLKKKPQALSQGERHIAVVIMALMIRPSLIMMDEPTTSLDAIETLDLLGIIRRFSVQYGISFIISGTSPEVITYASDFVHVMYCGTFVESSQTEDLISNPLHPYTRMIMKMRPSIRTKDLVLDRFIYDCNDYGCPFLNYCEYARDECRSQVSIRRYNDRAGQVRSLAEIMLSAKHVYKTYLEKVSIFKWHENKVIEDFSYDFLSGTRYGIIGVSGSGKTTLASILAGYDRPDSGSIIYSKHPSDGSSIRVRNVFQDTYRFLNPVNTLEWYEKNISAISPDPKLIDKILDAVGLPLERFGSLYIDQLSGGQRQRLAFAMVLSQLPDVLILDEPFSMIDPPNAMVLFSLIRKYLDKSTVIYIDHNIDRVAYLCDHIIAFDKGRIVEEDDVKKIFETQKTEYVEKLIWASEKISSRMKRQP
MGSDKIHHHHHHMKDLLNAFENKAPEIVFEWHDAETDATGWAVINSLRGGAAGGGTRMRKGLDKHEVVSLAKTMEIKFAVSGPHIGGAKSGINFDPADPRKNDVLNRWYKAVMPLLKSYYGTGGDLNVCEIKDVIPNTEEYGLWHPQEGIVNGHFHPSEELRIQKICQLRGGVTMPVVNPAYTPDPAKKYLVADLITGFGVSESVRHYYEIKGDSVAGKRVIVQGWGNVGGTAAYYLAANGAKVVGIIDRAAGLVSTEGLTFEQVKELLAKRVGNTLTGDNLLSAEDTQKLVWSVGADVFLPCAASRLVTREQVATLKDNGLGLIACGANVPFRDDNIFYGPTAEYADGVVDVIPDFIANCGMARAFNYLMSSKVDLDESAIFQDVSEVIRNALTESCAAATGKNHLLAASLKTVLHKLMH
